In the supplement of paper PMC10724198:
± gives the standard deviation of the averaged measurements.

The sequences below were run on Saccharomyces cerevisiae (assay: protein stability index of tFT-peptide fusion (C-terminal peptide) (PSI (0-1 scale)); higher = more stable (slower turnover)). Details: genetic background: das1 deletion; temperature: 30 C.
Description: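 MPS profiling in S. cerevisiae of the tFT-X12 degron library: putative degron peptides plus stable controls, 12 aa, fused to the C-terminus of a sfGFP-mCherry timer. Cells are FACS-sorted into 8 mCherry/sfGFP bins and deep-sequenced. PSI runs from 0 (unstable) to 1 (stable). Backgrounds are wild type, das1Δ and doa10Δ at 30 °C, and wild type, das1Δ, cdc34-1 and cdc53-1 at 37 °C; 2-3 technical replicates each.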
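Note: PSI is a weighted mean of sequencing reads over stability bins, variants kept only with over 10 reads, mCherry proximal and sfGFP distal, peptide attached via GGGS linker.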

| Sequence | protein stability index |
| --- | --- |
| KYCPCIPLLIAL | 0.339 ± 0.036 |
| LAVRSGFPFGLF | 0.674 ± 0.012 |
| LCLLHCSICISF | 0.301 ± 0.027 |
| LCLLIHFWISHL | 0.295 ± 0.028 |
| LCVFFRCFFVGG | 0.457 ± 0.015 |
| LCWRLCRFWWVG | 0.691 ± 0.033 |
| LDHGRVVWVVVS | 0.3 ± 0.034 |
| LDRLTTWTLIVR | 0.379 ± 0.026 |
| LERLHSVLLLTS | 0.223 ± 0.036 |
| LFFLPPCYWFLL | 0.5834 ± 0.0043 |
| LFFWWVAVVFRV | 0.156 ± 0.049 |
| LFLVFIGLFFLT | 0.359 ± 0.061 |
| LFRFSRLFLFVL | 0.578 ± 0.0093 |
| LFRRMWVEIFYV | 0.423 ± 0.029 |
| LGKSTLYMALNN | 0.611 ± 0.011 |
| LGVLVVCFNATY | 0.27 ± 0.014 |
| LHLTFRLAVLYY | 0.293 ± 0.037 |
| LIIVFGFTSILR | 0.36 ± 0.043 |
| LIPFPGFFILLT | 0.277 ± 0.021 |
| LISRGNRALFCI | 0.589 ± 0.017 |
| LLAREILVIVAV | 0.207 ± 0.032 |
| LLCLAVVLWFVV | 0.239 ± 0.031 |
| LLCSPPPLTVPA | 0.324 ± 0.045 |
| LLFVLWLSFFVL | 0.272 ± 0.03 |
| LLGDFAVLTCVF | 0.372 ± 0.024 |
| LLGGFAAFWRIL | 0.618 ± 0.012 |

| Sequence | protein stability index |
| --- | --- |
| LLLFLHILRYVF | 0.417 ± 0.028 |
| LLLFLHSTLTCR | 0.408 ± 0.035 |
| LLLLASLFFRLA | 0.467 ± 0.031 |
| LLLPVFLVFSVS | 0.269 ± 0.037 |
| LLLSLLVLRFFL | 0.356 ± 0.047 |
| LLMPLLLHSLVW | 0.308 ± 0.019 |
| LLPSNFLLLVGV | 0.217 ± 0.03 |
| LMIVSVRLLFFL | 0.232 ± 0.029 |
| LPAICFWCVLVG | 0.164 ± 0.025 |
| LPNLPPTSPERH | 0.652 ± 0.021 |
| LPPSPPCQSPAL | 0.672 ± 0.015 |
| LPPYPPPVPILI | 0.362 ± 0.031 |
| LPSLRPPPCIRA | 0.36 ± 0.038 |
| LQYSKALAVICG | 0.235 ± 0.041 |
| LRALGPRIYRIS | 0.645 ± 0.015 |
| LRLFIFLLFSVF | 0.268 ± 0.034 |
| LSFFFWFIFSLC | 0.429 ± 0.028 |
| LSLFCFFLLVLF | 0.272 ± 0.047 |
| LSPLPSPLILVV | 0.201 ± 0.0086 |
| LSRELRFVGFYH | 0.656 ± 0.017 |
| LSRLWVVGWVVA | 0.345 ± 0.032 |
| LSSIIRFLIFCL | 0.495 ± 0.024 |
| LTIYPLTYCFVS | 0.562 ± 0.025 |
| LVDSRIVWLFVS | 0.439 ± 0.026 |
| LVFFAYLIRGAL | 0.364 ± 0.031 |
| LVGLESCGERAG | 0.644 ± 0.025 |

| Sequence | protein stability index |
| --- | --- |
| LVHLVLYVAVFC | 0.292 ± 0.048 |
| LVLLRLSSLTIF | 0.561 ± 0.018 |
| LVVFLRFFLRVL | 0.166 ± 0.028 |
| LVVGCFLTFCFG | 0.26 ± 0.028 |
| LWFGAWWLGAVG | 0.411 ± 0.0063 |
| LWGVGRQRNIAS | 0.655 ± 0.038 |
| LWRRSLLLLRCC | 0.173 ± 0.029 |
| LWYVQILNIVLN | 0.293 ± 0.048 |
| LYLEAYFCIFHF | 0.358 ± 0.025 |
| MALAVRVVVCGA | 0.125 ± 0.025 |
| MAMMQTILIIIH | 0.117 ± 0.044 |
| MDLVSEYKIKVN | 0.56 ± 0.034 |
| MFRSEVSWKLCC | 0.624 ± 0.019 |
| MSCILFCCLVPF | 0.423 ± 0.023 |
| NASWAFLCYFCV | 0.538 ± 0.018 |
| NMRYRATIEACA | 0.222 ± 0.029 |
| NTYKICVVSVTS | 0.355 ± 0.047 |
| NYVFRIIIVLDA | 0.267 ± 0.035 |
| PALYLSLWFLFP | 0.445 ± 0.043 |
| PAVRRLTGLMLM | 0.612 ± 0.014 |
| PCNVLWYSLFLF | 0.452 ± 0.027 |
| PFAGRLWVTSSF | 0.671 ± 0.011 |
| PFYQSGGLVVVV | 0.469 ± 0.034 |
| PGHICVPVLGTA | 0.348 ± 0.037 |
| PGSIGVVIAVRS | 0.345 ± 0.044 |
| PGVWVVILRWWV | 0.123 ± 0.02 |

Same assay, conditions: genetic background: das1 deletion; temperature: 37 C

| Sequence | protein stability index |
| --- | --- |
| KYCPCIPLLIAL | 0.5 ± 0.012 |
| LAVRSGFPFGLF | 0.783 ± 0.036 |
| LCLLHCSICISF | 0.44881 ± 0.00028 |
| LCLLIHFWISHL | 0.43 ± 0.019 |
| LCVFFRCFFVGG | 0.608 ± 0.0094 |
| LCWRLCRFWWVG | 0.829 ± 0.014 |
| LDHGRVVWVVVS | 0.493 ± 0.0092 |
| LDRLTTWTLIVR | 0.524 ± 0.0076 |
| LERLHSVLLLTS | 0.379 ± 0.0057 |
| LFFLPPCYWFLL | 0.732 ± 0.049 |
| LFFWWVAVVFRV | 0.236 ± 0.029 |
| LFLVFIGLFFLT | 0.46 ± 0.011 |
| LFRFSRLFLFVL | 0.74 ± 0.028 |
| LFRRMWVEIFYV | 0.566 ± 0.015 |
| LGKSTLYMALNN | 0.695 ± 0.017 |
| LGVLVVCFNATY | 0.42063 ± 0.00021 |
| LHLTFRLAVLYY | 0.395 ± 0.03 |
| LIIVFGFTSILR | 0.526 ± 0.018 |
| LIPFPGFFILLT | 0.37 ± 0.046 |
| LISRGNRALFCI | 0.755 ± 0.029 |
| LLAREILVIVAV | 0.32 ± 0.017 |
| LLCLAVVLWFVV | 0.4051 ± 0.0011 |
| LLCSPPPLTVPA | 0.478 ± 0.017 |
| LLFVLWLSFFVL | 0.449 ± 0.012 |
| LLGDFAVLTCVF | 0.4825 ± 0.0011 |
| LLGGFAAFWRIL | 0.753 ± 0.014 |

| Sequence | protein stability index |
| --- | --- |
| LLLFLHILRYVF | 0.581 ± 0.046 |
| LLLFLHSTLTCR | 0.618 ± 0.018 |
| LLLLASLFFRLA | 0.614 ± 0.03 |
| LLLPVFLVFSVS | 0.482 ± 0.012 |
| LLLSLLVLRFFL | 0.536 ± 0.033 |
| LLMPLLLHSLVW | 0.455 ± 0.0014 |
| LLPSNFLLLVGV | 0.325 ± 0.014 |
| LMIVSVRLLFFL | 0.419 ± 0.015 |
| LPAICFWCVLVG | 0.273 ± 0.035 |
| LPNLPPTSPERH | 0.7046 ± 0.0062 |
| LPPSPPCQSPAL | 0.728 ± 0.012 |
| LPPYPPPVPILI | 0.519 ± 0.0006 |
| LPSLRPPPCIRA | 0.54 ± 0.02 |
| LQYSKALAVICG | 0.367 ± 0.01 |
| LRALGPRIYRIS | 0.747 ± 0.016 |
| LRLFIFLLFSVF | 0.39 ± 0.012 |
| LSFFFWFIFSLC | 0.5328 ± 0.0043 |
| LSLFCFFLLVLF | 0.332 ± 0.011 |
| LSPLPSPLILVV | 0.228 ± 0.0065 |
| LSRELRFVGFYH | 0.717 ± 0.025 |
| LSRLWVVGWVVA | 0.529 ± 0.0071 |
| LSSIIRFLIFCL | 0.5964 ± 0.0026 |
| LTIYPLTYCFVS | 0.657 ± 0.058 |
| LVDSRIVWLFVS | 0.632 ± 0.024 |
| LVFFAYLIRGAL | 0.518 ± 0.015 |
| LVGLESCGERAG | 0.7308 ± 0.0011 |

| Sequence | protein stability index |
| --- | --- |
| LVHLVLYVAVFC | 0.409 ± 0.0046 |
| LVLLRLSSLTIF | 0.707 ± 0.012 |
| LVVFLRFFLRVL | 0.265 ± 0.039 |
| LVVGCFLTFCFG | 0.441 ± 0.0089 |
| LWFGAWWLGAVG | 0.336 ± 0.0087 |
| LWGVGRQRNIAS | 0.769 ± 0.021 |
| LWRRSLLLLRCC | 0.244 ± 0.015 |
| LWYVQILNIVLN | 0.4552 ± 0.0029 |
| LYLEAYFCIFHF | 0.422 ± 0.013 |
| MALAVRVVVCGA | 0.131 ± 0.0024 |
| MAMMQTILIIIH | 0.186 ± 0.014 |
| MDLVSEYKIKVN | 0.704 ± 0.02 |
| MFRSEVSWKLCC | 0.753 ± 0.011 |
| MSCILFCCLVPF | 0.568 ± 0.014 |
| NASWAFLCYFCV | 0.68493 ± 0.0006 |
| NMRYRATIEACA | 0.397 ± 0.005 |
| NTYKICVVSVTS | 0.587 ± 0.0069 |
| NYVFRIIIVLDA | 0.429 ± 0.042 |
| PALYLSLWFLFP | 0.603 ± 0.023 |
| PAVRRLTGLMLM | 0.737 ± 0.024 |
| PCNVLWYSLFLF | 0.597 ± 0.018 |
| PFAGRLWVTSSF | 0.7908 ± 0.0063 |
| PFYQSGGLVVVV | 0.62927 ± 0.00041 |
| PGHICVPVLGTA | 0.513 ± 0.0077 |
| PGSIGVVIAVRS | 0.574 ± 0.02 |
| PGVWVVILRWWV | 0.243 ± 0.035 |
